According to patent US20020115110A1 (GlaxoSmithKline, published 2002):

T1: TR1Fc (human, UniProt O00300 22-401, limits assumed)
T1 construct: also called TR1 Fc fusion protein; TR1 (osteoprotegerin, OPG) fused to hinge-CH2-CH3 of human IgG1
T1 sequence: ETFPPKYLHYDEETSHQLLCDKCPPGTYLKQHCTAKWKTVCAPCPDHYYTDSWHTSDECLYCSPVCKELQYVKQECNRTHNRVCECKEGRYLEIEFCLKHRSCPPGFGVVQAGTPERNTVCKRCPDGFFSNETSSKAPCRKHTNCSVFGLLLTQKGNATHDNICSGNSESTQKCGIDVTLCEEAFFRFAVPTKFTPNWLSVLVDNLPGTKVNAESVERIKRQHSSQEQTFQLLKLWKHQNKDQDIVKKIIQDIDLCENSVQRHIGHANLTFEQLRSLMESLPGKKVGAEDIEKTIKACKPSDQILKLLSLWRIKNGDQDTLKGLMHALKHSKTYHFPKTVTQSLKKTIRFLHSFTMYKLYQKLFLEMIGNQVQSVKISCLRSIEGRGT

B1: TR2Fc (Fc fusion, not shown: a dimerising Fc or GST)
chain: LPFCKEDEYPVGSECCPKCSPGYRVKEACGELTGTVCEPCPPGTYIAHLNGLSKCLQCQMCDPAMGLRASRNCSRTENAVCGCSPGHFCIVQDGDHCAACRAYATSSPGQRVQKGGTESQDTLCQNCPPGTFSPNGTLEECQHQTKCSWLVTKARSIEGRGT
notes: Secreted from mammalian cells as a dimer and purified on protein A. Residues 1-192 include the putative leader peptide, which is removed on secretion; also called TR2 (HVEM) extracellular domain fused to hinge-CH2-CH3 of human IgG1; product of plasmid TR2Fclink
B2: sTL4 (ligand, not shown: small tags and cut ends)
chain: HHHHHHSDDDDKQERRSHEVNPAAHLTGANSSLTGSGGPLLWETQLGLAFLRGLSYHDGALVVTKAGYYYIYSKVQLGGVGCPLGLASTITHGLYKRTPRYPEELELLVSQQSPCGRATSSSRVWWDSSFLGGVVHLEAGEKVVVRVLDERLVRLRDGTRSYFGAFMV
notes: also called soluble TL4

Experiments:
sTL2 = molecular target: T2, sTL2 (Homo sapiens (Human), UniProt P50591 97-281); assay: SPR (BIAcore 2000), Fc fusion captured on immobilized protein A, ligand injected
T2 construct: also called soluble TL2; TRAIL
T2 sequence (P50591 97-281): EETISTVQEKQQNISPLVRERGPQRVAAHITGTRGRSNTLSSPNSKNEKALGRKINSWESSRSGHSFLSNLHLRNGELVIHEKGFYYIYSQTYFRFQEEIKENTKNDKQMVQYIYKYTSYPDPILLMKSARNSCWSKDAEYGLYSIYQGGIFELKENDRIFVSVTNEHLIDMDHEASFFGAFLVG
Description: (§1) Surface plasmon resonance. Protein A was immobilized on to a research grade carboxymethyldextran chip (CM5) using amin coupling procedures described previously (4). Flow cell 1 was activated with NHS/EDC for 5 min. Protein A was injected a a concentration of 1 ug/ml in NaOAc buffer (10 mM, pH 5.0) until 1000RUs of protein were coupled. Remaining activated groups were blocked with a 7 min injection of 1M ethanolamine. A control surface was created by repeating the coupling procedure in a flow cell2 without incorporating protein A. In a BIAcore 2000 biosensor (BIAcore Inc. Uppsala, Sweden) TR1Fc or TR2Fc were then injected at a flow rate of 100 ul/min followed by injection of TL2 or TL4, and the binding to receptor monitored by chances in surface plasmon resonance relative to the control chip. In these experiments, TR1Fc bound to TL2 but not TL4 and TR2Fc bound to TL4 but not TL2.

TR1Fc = molecular target: T1, TR1Fc; assay: as above
Description: as §1

Binder | binding result (sTL2) | binding result (TR1Fc)
B1 | no binding | 
B2 |  | no binding
